Broadly, the EC50 is the concentration that produces a half-maximal response. Low readings indicate a more potent agent, high ones a less potent agent.

This note sets out measurements from EP2748199B1 (Board of Regents, The University of Texas System, dated 2019).

This test has as its target T1, human OX40 (human, UniProt P43489 29-277).
T1 construct: whole, on cells; The construct used for transfection is not described; also called hOX40; OX40 receptor
T1 sequence (looked up): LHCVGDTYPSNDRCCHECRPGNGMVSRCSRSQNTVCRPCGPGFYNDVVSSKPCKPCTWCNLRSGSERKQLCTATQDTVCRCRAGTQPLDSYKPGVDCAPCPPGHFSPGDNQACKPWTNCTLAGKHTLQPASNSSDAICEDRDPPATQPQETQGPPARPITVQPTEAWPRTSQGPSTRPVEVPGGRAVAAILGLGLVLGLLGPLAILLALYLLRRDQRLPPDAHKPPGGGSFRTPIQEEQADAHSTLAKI
The test is described as follows: flow cytometry on L/OX40 cells, FITC goat anti-human IgG. (In general: Flow cytometry measures light scatter and fluorescence of single cells or particles in a stream.)

B1: chimeric 119-43-1 IgG1/κ antibody (antibody, V domains shown)
VH: EVKLEESGGGLVQPGGSMKLSCAASGFTFSDAWMDWVRQSPEKGLEWVAEIRSKANNHATYYAESVNGRFTISRDDSKSSVYLQMNSLRAEDTGIYYCTWGEVFYFDYWGQGTTLTVSS
VL: DIQMTQSPSSLSASLGGKVTITCKSSQDINKYIAWYQHKPGKGPRLLIHYTSTLQPGIPSRFSGSGSGRDYSFSISNLEPEDIATYYCLQYDNLLTFGAGTKLELKR
notes: also called Ch119-43-1
In the case of B1, a half-maximal effect (EC50) was put at 0.96 µg/mL.
